Experimental data taken from article doi:10.1101/2022.05.03.490446 (bioRxiv, 2022).
Like-named read-outs stand apart in the source and are kept apart here. One block for each molecule: values may come before it.

How the values were obtained:
GroEL [1] = biological target: T1, GroEL (E. coli, UniProt P0A6F5 1-548); test: atomic force microscopy
GroEL [2] = biological target: T1, GroEL; test: SEC
GroEL [3] = biological target: T1, GroEL; test: fluorescence polarisation + other fluorescence titration
GroEL [4] = biological target: T1, GroEL
GroEL [5] = biological target: T1, GroEL; test: other fluorescence titration

T1 sequence (P0A6F5 whole entry): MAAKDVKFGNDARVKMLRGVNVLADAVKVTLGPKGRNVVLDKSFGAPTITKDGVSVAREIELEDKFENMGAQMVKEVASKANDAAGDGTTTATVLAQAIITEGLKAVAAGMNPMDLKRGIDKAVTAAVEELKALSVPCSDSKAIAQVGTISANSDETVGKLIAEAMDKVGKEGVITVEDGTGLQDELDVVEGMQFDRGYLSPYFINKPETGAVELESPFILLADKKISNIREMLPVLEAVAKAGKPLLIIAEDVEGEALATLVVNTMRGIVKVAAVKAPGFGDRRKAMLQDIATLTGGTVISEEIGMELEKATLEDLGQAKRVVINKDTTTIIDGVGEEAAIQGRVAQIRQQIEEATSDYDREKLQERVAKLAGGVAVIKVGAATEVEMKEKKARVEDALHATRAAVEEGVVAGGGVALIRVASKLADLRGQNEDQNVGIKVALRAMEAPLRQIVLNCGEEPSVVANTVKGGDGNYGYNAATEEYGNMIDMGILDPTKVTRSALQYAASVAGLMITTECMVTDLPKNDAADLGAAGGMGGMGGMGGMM

specific binding force (GroEL [1]): 175 pN
stoichiometry N (GroEL:CnoX molar ratio) (GroEL [2]): 14
Molecule: CnoX (from UniProt P77395 1-284) (natural protein)

Kd (GroEL [3]): 310 nM
Kd (GroEL [4]): 350 nM
Molecule: fluorescein-labeled CnoX (from UniProt P77395 1-284) (natural protein)

Ki (GroEL [5]): 47 nM
B1: GroES (natural protein)
chain: MNIRPLHDRVIVKRKEVETKSAGGIVLTGSAAAKSTRGEVLAVGNGRILENGEVKPLDVKVGDIVIFNDGYGVKSEKIDNEEVLIMSESDILAIVEA
